The target of assay [1] is human FGFR2b on cells (human) (UniProt P21802). The experiment in a line: flow cytometry on FGFR2b expressing KATOIII cells. On the technique in general: A flow cytometer gives signals particle by particle.
Assay [2] has as its target human FGFR2b (beta)-Fc (human) (UniProt P21802). The experiment in a line: SPR (Biacore T200); hFGFR2b-Fc amine-coupled to CM5 chip, antibody injected at 0-200 nM. A general note: SPR reads the build-up and loss of mass on a sensor chip optically.
Assay [3] deals with recombinant human FGFR2b-Fc (murine Fc) (human) (UniProt P21802). The experiment in a line: ELISA, plate coated with 0.1 ug/ml human FGFR2b-Fc, anti-human IgG HRP detection. On the technique in general: ELISA stands for enzyme-linked immunosorbent assay.
Assay [4] has as its target human FGFR2b (beta)-Fc (human) (UniProt P21802). The experiment in a line: surface plasmon resonance (Biacore T200), hFGFR2b-Fc amine-coupled to a CM5 chip, antibody injected.
For assay [5], the target named is human FGFR2b on cells (human) (UniProt P21802). The experiment in a line: flow cytometry on KATOIII cells; sample name as printed 'KATOIII_36C 01nM_023.fcs' (no decimal point printed).
Assay [6] has the same target. The experiment in a line: flow cytometry on KATOIII cells; sample name as printed 'KATOIII_36C 05nM_022.fcs' (no decimal point printed).
Assay [7] has the same target. Kind of assay: flow cytometry on KATOIII cells; sample name as printed 'KATOIII_36C 0004nM_025.fcs' (no decimal point printed).
Assay [8] has the same target. The experiment in a line: flow cytometry on KATOIII cells; sample name as printed 'KATOIII_36C 002 nM_024.fcs' (no decimal point printed).
Assay [9] has the same target. Kind of assay: flow cytometry on KATOIII cells; sample name as printed 'KATOIII_36C 00009nM_026.fcs' (no decimal point printed).
The target of assay [10] is human FGFR2b (beta)-Fc (human) (UniProt P21802). The experiment in a line: ELISA, plate coated with HuFGFR2b.

B1: Ab 36c (antibody, V domains shown)
VH: QPYLQQSGAELVRPGASVKMSCKASGYTFTSYNMHWVKQTPRQGLEWIGAIFPENGDTSYNQKFKGKATLTVDKSSSTAYMQLSSLTSEDSAVYFCARGGFDYWGQGTTLTVSS
VL: DIVMTQSHKFMSTSVGDRVSITCKASQDVSTNVAWYQQKPGQSPKLLIFSASYRYTGVPDRFAGSGSGTDFTFTISSVQAEDLAVYYCQQHYSSPYTFGGGTKLDIK
What is called EC50 is the concentration giving half of the maximal effect. Higher therefore signals lower potency in that assay. For orientation: Kd means the free concentration of one partner at which half of the binding sites on the other are occupied at equilibrium, for simple one-to-one binding. The term EC50 (read off the curve) denotes the concentration at which the effect is half-maximal. In general, koff refers to the rate constant with which the complex falls apart. Read a low koff as a long-lived complex. Usually kon stands for the second-order rate constant of association. Lower therefore signals slower complex formation. As to B1, the EC50 in assay [1] came out at 8 nM. Moreover, the Kd in assay [2] amounted to 0.187 nM; in assay [4], 0.189 nM. Besides, the EC50 (read off the curve) in assay [3] came out at 0.3 nM. In assay [4], this molecule gave a koff of 2.44e-05 s⁻¹. In [4], this molecule came in with a kon of 129000 M⁻¹ s⁻¹. Further, the Mean : FITC-A was 455 in [5]; 1800 in assay [6]; 128 in [7]; 199 in assay [8]; 121 in [9].

B2: Ab 36 (antibody, V domains shown)
VH: B1 VH
VL: B1 VL
Take B2: the EC50 (read off the curve) in assay [10] was 0.2 nM.

B3: Ab hu36-2 (antibody, human IgG1, V domains shown)
VH: QVQLVQSGAEVKKPGSSVKVSCKASGYTFTSYNMHWVRQAPGQGLEWIGAIFPENGDTSYNQKFKGRATITADKSTSTAYMELSSLRSEDTAVYYCARGGFDYWGQGTTVTVSS
VL: DIQMTQSPSSLSASVGDRVTITCKASQDVSTNVAWYQQKPGKAPKLLIFSASYRYTGVPSRFSGSGSGTDFTFTISSLQPEDIATYYCQQHYSSPYTFGQGTKLEIK
In [2], B3 came in with a Kd of 0.189 nM. In assay [4], this molecule gave a dissociation constant Kd of 0.187 nM, a koff of 2.39e-05 s⁻¹ and a kon of 128000 M⁻¹ s⁻¹.

The values above are taken from patent US20230052680A1.
